Measured values as given in US20170114412A1.

Molecular target: Robo2, human, full-length, non-tagged (human) (UniProt Q9HCK4)
Assay: cell-based or functional assay

Robo2, human, full-length, non-tagged (human), sequence (Q9HCK4 22-1378 limits assumed, form in doubt): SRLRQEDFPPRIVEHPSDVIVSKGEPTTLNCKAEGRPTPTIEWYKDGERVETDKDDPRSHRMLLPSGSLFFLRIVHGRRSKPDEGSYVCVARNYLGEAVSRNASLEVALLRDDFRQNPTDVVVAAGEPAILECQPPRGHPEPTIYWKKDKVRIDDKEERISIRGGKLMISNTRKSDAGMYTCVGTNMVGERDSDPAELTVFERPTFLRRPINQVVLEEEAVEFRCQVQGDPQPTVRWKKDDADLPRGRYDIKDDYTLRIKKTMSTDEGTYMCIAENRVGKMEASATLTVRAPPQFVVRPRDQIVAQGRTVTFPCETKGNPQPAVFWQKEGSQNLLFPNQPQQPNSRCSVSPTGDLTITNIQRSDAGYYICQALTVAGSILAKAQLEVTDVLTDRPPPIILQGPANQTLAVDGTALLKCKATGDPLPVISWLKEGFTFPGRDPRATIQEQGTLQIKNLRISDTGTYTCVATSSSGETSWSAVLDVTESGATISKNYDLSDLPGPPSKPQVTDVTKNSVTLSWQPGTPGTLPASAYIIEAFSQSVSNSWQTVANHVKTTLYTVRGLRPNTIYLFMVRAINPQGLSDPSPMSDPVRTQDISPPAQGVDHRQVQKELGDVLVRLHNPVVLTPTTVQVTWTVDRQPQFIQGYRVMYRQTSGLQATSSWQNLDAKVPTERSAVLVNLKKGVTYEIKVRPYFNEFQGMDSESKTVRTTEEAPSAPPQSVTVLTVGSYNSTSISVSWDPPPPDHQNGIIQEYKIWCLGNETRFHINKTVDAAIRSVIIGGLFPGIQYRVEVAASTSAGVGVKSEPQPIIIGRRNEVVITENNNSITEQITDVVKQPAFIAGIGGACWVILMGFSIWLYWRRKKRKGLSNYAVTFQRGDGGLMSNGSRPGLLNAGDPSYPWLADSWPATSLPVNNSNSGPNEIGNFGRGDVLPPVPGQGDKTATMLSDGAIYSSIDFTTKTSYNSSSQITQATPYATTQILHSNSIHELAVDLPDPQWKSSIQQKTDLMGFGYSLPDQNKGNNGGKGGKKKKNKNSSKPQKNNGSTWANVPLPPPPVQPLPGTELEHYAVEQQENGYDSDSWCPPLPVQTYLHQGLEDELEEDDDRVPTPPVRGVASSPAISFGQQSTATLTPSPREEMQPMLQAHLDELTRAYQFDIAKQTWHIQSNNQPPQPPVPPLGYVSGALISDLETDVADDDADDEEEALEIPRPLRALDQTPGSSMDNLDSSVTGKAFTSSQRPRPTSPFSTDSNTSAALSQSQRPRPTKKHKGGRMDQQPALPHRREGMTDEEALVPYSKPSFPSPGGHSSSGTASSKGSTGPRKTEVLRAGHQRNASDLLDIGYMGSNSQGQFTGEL

percentage of CD16/7-NCD clustered HEK cells with F-actin tails (control medium without Slit2: ~80%): 40%
Substance: Slit2 (myc-tagged), in conditioned medium of stably transfected cells (ligand)
